From the supplement of paper PMC10567573

B1: KLHDC10 (parent)
chain: CPIIRIPNRFLRGHRPPPARSGHR

Variants of: B1
Assay: protein stability index of a GFP-peptide fusion (GPS, HEK-293T) (PSI 1-6); higher = more stable
Settings: c terminus: a fixed tail appended
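Also: lentivirally expressed fusions sorted by FACS into six bins by GFP to DsRed ratio, PSI derived from sequencing read proportions per bin multiplied by bin number.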

Q: With CPIIRIPNRFLRGHRPPPWRSGHR as the variant, how does the protein stability index read?
A: The protein stability index was 1.69.

Q: Which protein stability index does the source give for CPIIRIPNRFLRGHCPPPARSGHR here?
A: The protein stability index was 1.68.

Q: For CPIIRIPNRFLRGHLPPPARSGHR, which protein stability index is on record?
A: The protein stability index was 1.05.

Q: With CPIIRIPNRFLRGHAPPPARSGHR as the variant, how does the protein stability index read?
A: Its protein stability index is 1.3.

Q: Which protein stability index does the source give for CPIIRIPNRFLRGHSPPPARSGHR here?
A: The protein stability index was 1.69.

Q: With CPIIRIPNRFLRGHEPPPARSGHR as the variant, how does the protein stability index read?
A: The protein stability index was 1.92.

Q: With CPIIRIPNRFLRGHMPPPARSGHR as the variant, how does the protein stability index read?
A: The protein stability index was 1.84.

Q: Which protein stability index does the source give for CPIIRIPNRFLRGHFPPPARSGHR here?
A: Its protein stability index is 1.43.

Q: Which protein stability index does the source give for CPIIRIPNRFLRGHQPPPARSGHR here?
A: Its protein stability index is 2.44.

Q: For CPIIRIPNRFLRGHWPPPARSGHR, which protein stability index is on record?
A: Its protein stability index is 1.47.

Q: Which protein stability index does the source give for CPIIRIPNRFLRGHDPPPARSGHR here?
A: The protein stability index was 2.11.

Q: With CPIIRIPNRFLRGHNPPPARSGHR as the variant, how does the protein stability index read?
A: The protein stability index was 2.3.

Q: For CPIIRIPNRFLRGHGPPPARSGHR, which protein stability index is on record?
A: The protein stability index was 1.69.

Q: For CPIIRIPNRFLRGHKPPPARSGHR, which protein stability index is on record?
A: Its protein stability index is 2.19.

Q: With CPIIRIPNRFLRGHTPPPARSGHR as the variant, how does the protein stability index read?
A: Its protein stability index is 1.73.

Q: With CPIIRIPNRFLRGHIPPPARSGHR as the variant, how does the protein stability index read?
A: Its protein stability index is 1.28.

Q: With CPIIRIPNRFLRGHVPPPARSGHR as the variant, how does the protein stability index read?
A: The protein stability index was 1.84.

Q: For CPIIRIPNRFLRGHYPPPARSGHR, which protein stability index is on record?
A: Its protein stability index is 1.51.

Q: Which protein stability index does the source give for CPIIRIPNRFLYGHRPPPARSGHR here?
A: Its protein stability index is 2.43.

Q: For CPIIRIPNRFLWGHRPPPARSGHR, which protein stability index is on record?
A: The protein stability index was 2.5.

Q: With CPIIRIPNRFLVGHRPPPARSGHR as the variant, how does the protein stability index read?
A: Its protein stability index is 2.75.

Q: With CPIIRIPNRFLPGHRPPPARSGHR as the variant, how does the protein stability index read?
A: The protein stability index was 1.63.

Q: Which protein stability index does the source give for CPIIRIPNRFLTGHRPPPARSGHR here?
A: Its protein stability index is 2.02.

Q: With CPIIRIPNRFLSGHRPPPARSGHR as the variant, how does the protein stability index read?
A: Its protein stability index is 1.9.

Q: Which protein stability index does the source give for CPIIRIPNRFLQGHRPPPARSGHR here?
A: Its protein stability index is 2.07.

Q: For CPIIRIPNRFLRGHRPPPARAGHR, which protein stability index is on record?
A: The protein stability index was 1.85.

Q: For CPIIRIPNRFLRGHRPPPARVGHR, which protein stability index is on record?
A: The protein stability index was 1.62.

Q: For CPIIRIPNRFLRGHRPPPARPGHR, which protein stability index is on record?
A: The protein stability index was 1.94.

Q: With CPIIRIPNRFLRGHRPPPARNGHR as the variant, how does the protein stability index read?
A: Its protein stability index is 2.25.

Q: With CPIIRIPNRFLRGHRPPPARHGHR as the variant, how does the protein stability index read?
A: Its protein stability index is 1.75.

Q: Which protein stability index does the source give for CPIIRIPNRFLRGHRPPPARWGHR here?
A: The protein stability index was 1.83.

Q: For CPIIRIPNRFLRGHRPPPARQGHR, which protein stability index is on record?
A: Its protein stability index is 1.42.

Q: For CPIIRIPNRFLRGHRPPPARKGHR, which protein stability index is on record?
A: The protein stability index was 1.65.

Q: Which protein stability index does the source give for CPIIRIPNRFLRGHRPPPARGGHR here?
A: The protein stability index was 2.63.

Q: Which protein stability index does the source give for CPIIRIPNRFLRGHRPPPARDGHR here?
A: Its protein stability index is 1.75.

Q: Which protein stability index does the source give for CPIIRIPNRFLRGHRPPPARLGHR here?
A: Its protein stability index is 1.97.

Q: For CPIIRIPNRFLRGHRPPPARRGHR, which protein stability index is on record?
A: The protein stability index was 1.97.

Q: For CPIIRIPNRFLRGHRPPPARMGHR, which protein stability index is on record?
A: The protein stability index was 1.66.

Q: With CPIIRIPNRFLRGHRPPPARFGHR as the variant, how does the protein stability index read?
A: Its protein stability index is 2.91.

Q: Which protein stability index does the source give for CPIIRIPNRFLRGHRPPPARTGHR here?
A: Its protein stability index is 1.83.

Q: With CPIIRIPNRFLRGHRPPPARIGHR as the variant, how does the protein stability index read?
A: The protein stability index was 1.36.

Q: For CPIIRIPNRFLRGHRPPGARSGHR, which protein stability index is on record?
A: Its protein stability index is 2.95.

Q: With CPIIRIPNRFLRGHRPPDARSGHR as the variant, how does the protein stability index read?
A: The protein stability index was 1.49.

Q: Which protein stability index does the source give for CPIIRIPNRFLRGHRPPLARSGHR here?
A: Its protein stability index is 1.47.

Q: With CPIIRIPNRFLRGHRPPKARSGHR as the variant, how does the protein stability index read?
A: The protein stability index was 2.5.

Q: For CPIIRIPNRFLRGHRPPCARSGHR, which protein stability index is on record?
A: The protein stability index was 1.82.

Q: For CPIIRIPNRFLRGHRPPWARSGHR, which protein stability index is on record?
A: Its protein stability index is 1.85.

Q: With CPIIRIPNRFLRGHRPPTARSGHR as the variant, how does the protein stability index read?
A: The protein stability index was 1.92.

Q: With CPIIRIPNRFLRGHRPPFARSGHR as the variant, how does the protein stability index read?
A: Its protein stability index is 1.62.

Q: Which protein stability index does the source give for CPIIRIPNRFLRGHRPPSARSGHR here?
A: The protein stability index was 2.37.

Q: With CPIIRIPNRFLRGHRPPAARSGHR as the variant, how does the protein stability index read?
A: Its protein stability index is 1.51.

Q: With CPIIRIPNRFLRGHRPPEARSGHR as the variant, how does the protein stability index read?
A: Its protein stability index is 1.78.

Q: With CPIIRIPNRFLRGHRPPNARSGHR as the variant, how does the protein stability index read?
A: The protein stability index was 2.43.

Q: For CPIIRIPNRFLRGHRPPVARSGHR, which protein stability index is on record?
A: Its protein stability index is 2.27.

Q: Which protein stability index does the source give for CPIIRIPNRFLRGHRPPYARSGHR here?
A: The protein stability index was 1.91.

Q: With CPIIRIPNRFLRGHRPPIARSGHR as the variant, how does the protein stability index read?
A: The protein stability index was 2.17.

Q: With CPIIRIPNRFLRGHRPPHARSGHR as the variant, how does the protein stability index read?
A: Its protein stability index is 2.37.

Q: For CPIIRIPNRFLRGHRPPMARSGHR, which protein stability index is on record?
A: Its protein stability index is 1.74.

Q: Which protein stability index does the source give for CPIIRIPNRFLRGHRPPRARSGHR here?
A: The protein stability index was 1.63.

Q: For CPIIRIPNRFLRGHRPPQARSGHR, which protein stability index is on record?
A: The protein stability index was 1.78.

Q: With CPIIRIPNRFLRGHRPPPARSMHR as the variant, how does the protein stability index read?
A: Its protein stability index is 1.91.

Q: For CPIIRIPNRFLRGHRPPPARSIHR, which protein stability index is on record?
A: The protein stability index was 1.82.

Q: For CPIIRIPNRFLRGHRPPPARSNHR, which protein stability index is on record?
A: The protein stability index was 1.95.

Q: Which protein stability index does the source give for CPIIRIPNRFLRGHRPPPARSLHR here?
A: The protein stability index was 2.02.

Q: For CPIIRIPNRFLRGHRPPPARSHHR, which protein stability index is on record?
A: Its protein stability index is 1.84.

Q: For CPIIRIPNRFLRGHRPPPARSTHR, which protein stability index is on record?
A: The protein stability index was 2.39.

Q: For CPIIRIPNRFLRGHRPPPARSRHR, which protein stability index is on record?
A: The protein stability index was 2.17.

Q: With CPIIRIPNRFLRGHRPPPARSQHR as the variant, how does the protein stability index read?
A: Its protein stability index is 1.33.

Q: For CPIIRIPNRFLRGHRPPPARSDHR, which protein stability index is on record?
A: Its protein stability index is 2.62.

Q: For CPIIRIPNRFLRGHRPPPARSKHR, which protein stability index is on record?
A: Its protein stability index is 1.71.

Q: With CPIIRIPNRFLRGHRPPPARSFHR as the variant, how does the protein stability index read?
A: The protein stability index was 2.01.

Q: For CPIIRIPNRFLRGHRPPPARSCHR, which protein stability index is on record?
A: The protein stability index was 1.62.

Q: With CPIIRIPNRFLRGHRPPPARSEHR as the variant, how does the protein stability index read?
A: The protein stability index was 1.78.

Q: For CPIIRIPNRFLRGHRPPPARSYHR, which protein stability index is on record?
A: The protein stability index was 1.98.

Q: With CPIIRIPNRFLRGHRPPPARSVHR as the variant, how does the protein stability index read?
A: Its protein stability index is 2.76.

Q: With CPIIRIPNRFLRGHRPPPARSSHR as the variant, how does the protein stability index read?
A: The protein stability index was 1.66.

Q: Which protein stability index does the source give for CPIIRIPNRFLRGHRPPPARSAHR here?
A: The protein stability index was 1.57.

Q: Which protein stability index does the source give for CPIIRIPNRFLRMHRPPPARSGHR here?
A: The protein stability index was 1.9.

Q: For CPIIRIPNRFLRIHRPPPARSGHR, which protein stability index is on record?
A: The protein stability index was 2.04.

Q: With CPIIRIPNRFLRKHRPPPARSGHR as the variant, how does the protein stability index read?
A: The protein stability index was 1.9.

Q: Which protein stability index does the source give for CPIIRIPNRFLRWHRPPPARSGHR here?
A: The protein stability index was 2.

Q: With CPIIRIPNRFLRLHRPPPARSGHR as the variant, how does the protein stability index read?
A: The protein stability index was 1.85.

Q: For CPIIRIPNRFLRRHRPPPARSGHR, which protein stability index is on record?
A: The protein stability index was 1.74.

Q: Which protein stability index does the source give for CPIIRIPNRFLRCHRPPPARSGHR here?
A: The protein stability index was 1.53.

Q: Which protein stability index does the source give for CPIIRIPNRFLRAHRPPPARSGHR here?
A: The protein stability index was 2.21.

Q: Which protein stability index does the source give for CPIIRIPNRFLRYHRPPPARSGHR here?
A: Its protein stability index is 1.88.

Q: For CPIIRIPNRFLRQHRPPPARSGHR, which protein stability index is on record?
A: The protein stability index was 2.36.

Q: With CPIIRIPNRFLRPHRPPPARSGHR as the variant, how does the protein stability index read?
A: The protein stability index was 1.48.

Q: For CPIIRIPNRFLREHRPPPARSGHR, which protein stability index is on record?
A: The protein stability index was 1.38.

Q: With CPIIRIPNRFLRNHRPPPARSGHR as the variant, how does the protein stability index read?
A: The protein stability index was 2.2.

Q: With CPIIRIPNRFLRDHRPPPARSGHR as the variant, how does the protein stability index read?
A: The protein stability index was 1.55.

Q: Which protein stability index does the source give for CPIIRIPNRFLRFHRPPPARSGHR here?
A: Its protein stability index is 1.81.

Q: With CPIIRIPNRFLRTHRPPPARSGHR as the variant, how does the protein stability index read?
A: Its protein stability index is 2.65.

Q: For CPIIRIPNRFLRHHRPPPARSGHR, which protein stability index is on record?
A: The protein stability index was 1.98.
